We go through 8 molecules from patent publication US20240209093A1 (I MAB BIOPHARMA, published 2024).

The target in experiment [1] is T1, His-tagged human TIGIT-ECD protein (human, UniProt Q495A1 22-141).
T1 construct: extracellular domain; also called hTIGIT-his
T1 sequence (looked up): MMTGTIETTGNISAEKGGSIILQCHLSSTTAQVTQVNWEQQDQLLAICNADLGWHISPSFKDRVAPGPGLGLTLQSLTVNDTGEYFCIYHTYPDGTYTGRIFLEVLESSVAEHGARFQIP
The experiment is described as follows: ELISA on His-tagged human TIGIT. (In general: ELISA stands for enzyme-linked immunosorbent assay.)

For experiment [2], the target named is T2, human PD-L1-his (human, UniProt Q9NZQ7 19-238).
T2 construct: also called hPD-L1-his; human His-PD-L1
T2 sequence (Q9NZQ7 19-238 limits assumed): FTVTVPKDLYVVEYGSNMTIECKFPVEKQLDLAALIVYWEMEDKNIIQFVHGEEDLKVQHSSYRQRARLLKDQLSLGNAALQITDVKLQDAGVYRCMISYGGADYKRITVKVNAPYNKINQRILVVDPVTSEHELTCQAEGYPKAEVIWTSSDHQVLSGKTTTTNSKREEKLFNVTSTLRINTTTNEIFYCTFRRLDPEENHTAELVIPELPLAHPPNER
The experiment is described as follows: SPR, Biacore T200, antibody captured on protein A chip, hPD-L1-his 6.25-100 nM as analyte. As to the method: The binding affinity of the PD-L1/TIGIT bsAb to recombinant human his-tagged PD-L1 protein was tested by BIACORE®. […] A series of dilutions of human PD-L1 protein (6.25 nM-100 nM) were injected over captured antibody at a flow rate of 10 μL/min. The antigen was allowed to associate for 180 s and dissociate for 1200 s. All the experiments were carried out on a Biacore T200. Data analysis was carried out using Biacore T200 evaluation software.

The target in experiment [3] is T1, His-tagged human TIGIT-ECD protein. Description: SPR, Biacore T200, antibody captured on protein A chip, hTIGIT-his 0.78-12.5 nM as analyte. From the text:
The antibodies were captured by Protein A chip. […] The association phase was 180 s and the dissociation phase was 1200 s.
(In general: SPR reads the build-up and loss of mass on a sensor chip optically.)

The target of experiment [4] is T2, human PD-L1-his. Description: ELISA, plate coated with human His-PD-L1, detection goat anti-human IgG Fc HRP [panel A]. From the text:
(§1) Binding of the anti-PD-L1/TIGIT bsAb molecules with human PD-L1 was further analyzed by ELISA.

A further experiment has as its target T3, Tag1-CD47 (UniProt Q08722 19-139).
T3 construct: Bought kit reagent
The experiment is described as follows: HTRF CD47/SIRPα binding assay (Cisbio): blocking of Tag2-SIRPa binding to Tag1-CD47; axis numbers -3 to 3 read as log10 of nM. From the text:
Fluorescence data were read on a PerkinElmer Envision plate reader using laser as light source.
(In general: TR-FRET usually uses a lanthanide donor and a delayed reading to cut background.)

The target in experiment [5] is T4, human PD-L1 on cells (human, UniProt Q9NZQ7 19-290).
T4 construct: whole, on cells; also called Raji cells overexpressing human PD-L1; Raji-PD-L1 cells
T4 sequence (Q9NZQ7 19-290): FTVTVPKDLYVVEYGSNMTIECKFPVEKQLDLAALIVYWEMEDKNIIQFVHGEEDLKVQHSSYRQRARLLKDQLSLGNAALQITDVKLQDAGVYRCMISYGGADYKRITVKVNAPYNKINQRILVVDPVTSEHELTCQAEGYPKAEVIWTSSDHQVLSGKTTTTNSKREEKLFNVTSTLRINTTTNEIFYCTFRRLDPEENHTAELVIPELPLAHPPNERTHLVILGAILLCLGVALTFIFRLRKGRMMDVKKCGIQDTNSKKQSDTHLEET
The experiment is described as follows: flow cytometry on RKO cells, which carry both human CD47 and human PD-L1; APC-labelled secondary antibody; signal not resolved between the two arms. As to the method: (§2) RKO cells are human colon carcinoma cell lines that express endogenous level of human CD47 and human PD-L1 on the surface. RKO cells were incubated with serial diluted anti-CD47/PD-L1 bispecific antibodies, parental CD47 or PD-L1 monospecific antibodies at 4° C. for 30 minutes. Then cells were washed with FACS buffer three times, followed by incubation with APC-labeled secondary antibody at 4° C. for 30 minutes. Then cells were washed with FACS buffer for three times. Binding was measured by flow cytometry.

Experiment [6] has as its target T2, human PD-L1-his. The experiment is described as follows: SPR, Biacore, full kinetics, antigen 100-1.5625 nM.
For experiment [7], the target named is T4, human PD-L1 on cells. Description: flow cytometry on Raji cells overexpressing human PD-L1, PE-anti-hu IgG. As to the method: Binding capability of the anti-PD-L1 antibody of the present application was further evaluated by using Raji cells overexpressing human PD-L1. Briefly, 50 μl Raji cells overexpressing human PD-L1 were seeded into 96 well plate at a concentration of 2*10⁵ cells/well. […] Then the cells were washed twice by FACS buffer and supplemented with 100 μl PE-anti-hu IgG, followed by incubation on ice for 1 hour. After incubation, the cells in each well were collected and resuspended with 65 μl FACS buffer for analysis by flow cytometry.

Experiment [8] deals with T2, human PD-L1-his. Description: ELISA, plate coated with human His-PD-L1, detection goat anti-human IgG Fc HRP. From the text:
Binding properties of the humanized anti-PD-L1 antibody of the present application were first evaluated by ELISA assay.

Experiment [9] deals with T4, human PD-L1 on cells. Description: flow cytometry on RKO cells (endogenous CD47 and PD-L1), APC-labelled secondary antibody. As to the method:
as §2

The target of experiment [10] is T4, human PD-L1 on cells. Description: flow cytometry on Raji cells overexpressing human PD-L1, PE-anti-hu IgG [panel C]. As to the method: Furthermore, binding capability of the anti-PD-L1/TIGIT bsAbs of the present application with cells expressing PD-L1 was analyzed by using Raji-PD-L1 cells. Briefly, 50 μl Raji cells overexpressing human PD-L1 were seeded into 96 well plate with 2*10⁵ cells/well.

Experiment [11] addresses T2, human PD-L1-his. The experiment is described as follows: ELISA, plate coated with human His-PD-L1, detection goat anti-human IgG Fc HRP [panel B].
Excerpt: as §1

For experiment [12], the target named is T1, His-tagged human TIGIT-ECD protein. The experiment is described as follows: ELISA on His-tagged human TIGIT. This is another data set of the same source.

Read-outs that look alike come from different tables or passages of the source.

T3 sequence (Q08722 19-139 limits assumed): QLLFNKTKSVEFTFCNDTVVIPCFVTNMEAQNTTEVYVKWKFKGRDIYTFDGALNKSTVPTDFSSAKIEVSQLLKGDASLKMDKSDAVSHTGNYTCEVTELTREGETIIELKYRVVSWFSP

B1: TIGIT-CL-93-VH6 (bispecific antibody, human IgG1, kappa)
heavy: not shown
light: DIVMTQSPSSLSASVGDRVTITCKASQDVDTAVAWYQQKPGKAPKLLIYWASARHTGVPSRFSGSGSGTDFTFTISSLQPEDIATYYCQQYSNYPLTFGQGTKLEIKRTVAAPSVFIFPPSDEQLKSGTASVVCLLNNFYPREAKVQWKVDNALQSGNSQESVTEQDSKDSTYSLSSTLTLSKADYEKHKVYACEVTHQGLSSPVTKSFNRGECGGGGSGGGGSGGGGSGGGGSEVQLVESGGGLVQPGGSLRLSCAASGFTFTFRHYVMGWFRQAPGKEREFVAAISWSGSGSYYADSVKGRFTISRDNSKNTVYLQMNSLRAEDTAVYYCAADMTTRMSQASREYDYWGQGTLVTVSS
notes: Two 93-VH6 fused to the C-termini of the anti-TIGIT light chains; also called TIGIT-CL-PD-L1 format
Regarding B1, the EC50 (read off the curve) (in general, the concentration that produces a half-maximal response) in [1] was around 0.5 nM. In addition, in the experiment with human PD-L1-his [2], binding was characterised by a dissociation constant (Kd) of 3.97 nM, the koff (commonly the rate constant with which the complex falls apart) is 0.000143 s⁻¹ and the kon (commonly the second-order rate constant of association) stood at 35900 M⁻¹ s⁻¹. Besides, in experiment [3], the Kd – broadly, the concentration at which binding is half-saturated – stood at 0.103 nM; the koff was found to be 0.000176 s⁻¹; the association rate constant (kon) was determined as 1.72e+06 M⁻¹ s⁻¹. Moreover, in the experiment with human PD-L1-his [4], the 50% effective concentration (EC50 (read off the curve)) was around 1 nM.

B2: 34C5-L-93VH6-IgG1 (bispecific antibody)
heavy: not shown
light: DIQMTQSPSSLSASVGDRVTITCRASQDISDYLNWYQQKPGKAPKLLIYYISRLHSGVPSRFSGSGSGTDYTLTISSLQPEDFATYYCQQGHTLPWTFGGGTKVEIKGGGGSGGGGSGGGGSGGGGSEVQLVESGGGLVQPGGSLRLSCAASGFTFTFRHYVMGWFRQAPGKEREFVAAISWSGSGSYYADSVKGRFTISRDNSKNTVYLQMNSLRAEDTAVYYCAADMTTRMSQASREYDYWGQGTLVTVSSRTVAAPSVFIFPPSDEQLKSGTASVVCLLNNFYPREAKVQWKVDNALQSGNSQESVTEQDSKDSTYSLSSTLTLSKADYEKHKVYACEVTHQGLSSPVTKSFNRGEC
notes: Symmetric 'two to two' anti-CD47/PD-L1 bispecific
As for B2, in the experiment with Tag1-CD47, the “IC50 (read off the curve)” value is around 1 nM. Moreover, the binding result in the experiment with human PD-L1 on cells [5] is listed as “binds”.

B3: 13H3-L-93VH6-IgG1 (bispecific antibody)
heavy: not shown
light: DIVMTQSPDSLAVSLGERATINCKSSQSVLYAGNNRNYLAWYQQKPGQPPKLLINQASTRASGVPDRFSGSGSGTEFTLIISSLQAEDVAIYYCQQYYTPPLAFGGGTKLEIKGGGGSGGGGSGGGGSGGGGSEVQLVESGGGLVQPGGSLRLSCAASGFTFTFRHYVMGWFRQAPGKEREFVAAISWSGSGSYYADSVKGRFTISRDNSKNTVYLQMNSLRAEDTAVYYCAADMTTRMSQASREYDYWGQGTLVTVSSRTVAAPSVFIFPPSDEQLKSGTASVVCLLNNFYPREAKVQWKVDNALQSGNSQESVTEQDSKDSTYSLSSTLTLSKADYEKHKVYACEVTHQGLSSPVTKSFNRGEC
notes: as for B2
As to B3, the “IC50 (read off the curve)” value with Tag1-CD47 is around 1 nM. For the same molecule, the binding result with human PD-L1 on cells [5] is “binds”.

B4: 93-VH-6 (VHH)
VHH: EVQLVESGGGLVQPGGSLRLSCAASGFTFTFRHYVMGWFRQAPGKEREFVAAISWSGSGSYYADSVKGRFTISRDNSKNTVYLQMNSLRAEDTAVYYCAADMTTRMSQASREYDYWGQGTLVTVSS
notes: Humanized anti-PD-L1 single domain antibody; the assays imply a human Fc part that is not described; also called PD-L1 Ab (93-VH6); 93-VH6 sdAb
For the molecule B4, the Kd with human PD-L1-his [6] was 2.06 nM; with human PD-L1-his [2] it was 3.64 nM. The koff with human PD-L1-his [6] was 0.000197 s⁻¹; with human PD-L1-his [2], 0.000128 s⁻¹. Further, the association rate constant (kon) in the experiment with human PD-L1-his [6] was 95900 M⁻¹ s⁻¹; in the experiment with human PD-L1-his [2], 35300 M⁻¹ s⁻¹. Further, the concentration giving a half-maximal response (EC50 (read off the curve)) with human PD-L1 on cells [7] is around 0.4 nM; in the experiment with human PD-L1-his [8], around 0.02 nM; with human PD-L1 on cells [9] it was around 0.3 nM; in the experiment with human PD-L1-his [4] it was around 1 nM.

B5: 112-VH47 (VHH)
VHH: EVQLVESGGGLVQPGGSLRLSCAASGFTFSSGTQFSDSKIDWYRQAPGKGLVWVAGIFSTGSTIYEDSVKGRFTISRDNAKNTGYLQMNSLRAEDTAVYYCRVIGRGILAWGQGTLVTVSS
notes: Humanized anti-PD-L1 single domain antibody
In the case of B5, the “EC50 (read off the curve)” value with human PD-L1 on cells [7] is around 0.3 nM; with human PD-L1-his [8] it was around 0.009 nM; in the experiment with human PD-L1 on cells [10], around 0.3 nM; with human PD-L1-his [11], around 0.009 nM.

B6: TIGIT-Fc-93-VH6 (bispecific antibody, human IgG1, kappa)
heavy: not shown
light: DIVMTQSPSSLSASVGDRVTITCKASQDVDTAVAWYQQKPGKAPKLLIYWASARHTGVPSRFSGSGSGTDFTFTISSLQPEDIATYYCQQYSNYPLTFGQGTKLEIKRTVAAPSVFIFPPSDEQLKSGTASVVCLLNNFYPREAKVQWKVDNALQSGNSQESVTEQDSKDSTYSLSSTLTLSKADYEKHKVYACEVTHQGLSSPVTKSFNRGEC
notes: Two 93-VH6 fused to the C-termini of the anti-TIGIT heavy chains; also called TIGIT-Fc-PD-L1 format
Consider B6, for which the half-maximal effective concentration (EC50 (read off the curve)) in experiment [1] was around 0.5 nM. In the experiment with human PD-L1-his [2], this molecule registered a Kd of 1.15 nM, a koff of 4.25e-05 s⁻¹ and a kon of 37100 M⁻¹ s⁻¹. Also, in [3], binding was characterised by a dissociation constant (Kd) of 0.112 nM, the koff was 0.000139 s⁻¹ and the association rate constant (kon) was 1.24e+06 M⁻¹ s⁻¹. The “EC50 (read off the curve)” value with human PD-L1-his [4] is around 2 nM.

B7: TIGIT-Fc-112-VH47 (bispecific antibody, human IgG1, kappa)
heavy: not shown
light: B6 light
In the case of B7, the “EC50 (read off the curve)” value in experiment [12] was around 0.01 nM; with human PD-L1 on cells [10] it was around 0.4 nM; with human PD-L1-his [11], around 0.02 nM.

B8: TIGIT-Fc-93-VH6*2 (bispecific antibody, human IgG1, kappa)
heavy: not shown
light: B6 light
notes: Four 93-VH6, two in tandem at the C-terminus of each anti-TIGIT heavy chain; also called TIGIT-Fc-PD-93-VH6*2; TIGIT-Fc-PD-L1*2 format
With B8, the “EC50 (read off the curve)” value in experiment [1] is around 0.6 nM. In the experiment with human PD-L1-his [2], this molecule registered an equilibrium dissociation constant (Kd) of 5.4 nM, an off-rate (koff) of 0.000118 s⁻¹ and an on-rate (kon) of 21900 M⁻¹ s⁻¹. In experiment [3], the Kd was determined as 0.0912 nM, the koff came to 0.000131 s⁻¹ and the kon worked out at 1.43e+06 M⁻¹ s⁻¹. Further, the concentration for a half-maximal effect (EC50 (read off the curve)) with human PD-L1-his [4] is around 0.8 nM.
